From US20170202931

Experiments:
Test in all cases: cell_activity
[1] = system: ZFN SBS 48641 (mouse albumin intron 1) (synthetic); conditions: as pair with 31523; mouse liver in vivo, males 4 months (females 45.69; 1 month 46.67 male, 34.05 female); deep sequencing
[2] = system: ZFN SBS 31523 (mouse albumin intron 1) (synthetic); conditions: as pair with 48641; mouse liver in vivo, males 4 months (females 45.69; 1 month 46.67 male, 34.05 female); deep sequencing
[3] = system: ZFN pair SBS 47171 / SBS 47931 (human albumin) (synthetic); conditions: HepG2 cells with IDS donor, 3 days (62.27 with IDUA donor); MiSeq

Substance: CTGAAGGTGGCAATGGTTCCTCTCTGCT (double strand) [48641 target site]
- activity [1]: 55.6 % indels

Substance: TTTCCTGTAACGATCGGGAACTGGCATC (double strand) [31523 target site]
- activity [2]: 55.6 % indels

Substance: human albumin locus ZFN site
- activity [3]: 59.3 % indels
